In publication PMC7374751, “TIMP-3 facilitates binding of target metalloproteinases to the endocytic receptor LRP-1 and promotes scavenging of MMP-1” (Scientific Reports, 2020):

Target: T1, low-density lipoprotein receptor-related protein 1 (LRP-1) (UniProt Q07954 20-4544)
T1 construct: low-density lipoprotein receptor-related protein 1 (LRP-1), bought from Biomac; source: bought: Biomac (Leipzig, Germany)
Test: SPR; BIAcore T200; LRP-1 immobilised on a CM5 chip by amine coupling (3000 RU); 25 °C; 150 mM NaCl, 10 mM CaCl2, 50 mM Tris-HCl, 0.01% Tween-20, pH 7.5; 30 μl/min; ligands or pre-formed complexes injected; one-site binding model; triplicate
Settings: both partners purified

T1 sequence (Q07954 20-4544): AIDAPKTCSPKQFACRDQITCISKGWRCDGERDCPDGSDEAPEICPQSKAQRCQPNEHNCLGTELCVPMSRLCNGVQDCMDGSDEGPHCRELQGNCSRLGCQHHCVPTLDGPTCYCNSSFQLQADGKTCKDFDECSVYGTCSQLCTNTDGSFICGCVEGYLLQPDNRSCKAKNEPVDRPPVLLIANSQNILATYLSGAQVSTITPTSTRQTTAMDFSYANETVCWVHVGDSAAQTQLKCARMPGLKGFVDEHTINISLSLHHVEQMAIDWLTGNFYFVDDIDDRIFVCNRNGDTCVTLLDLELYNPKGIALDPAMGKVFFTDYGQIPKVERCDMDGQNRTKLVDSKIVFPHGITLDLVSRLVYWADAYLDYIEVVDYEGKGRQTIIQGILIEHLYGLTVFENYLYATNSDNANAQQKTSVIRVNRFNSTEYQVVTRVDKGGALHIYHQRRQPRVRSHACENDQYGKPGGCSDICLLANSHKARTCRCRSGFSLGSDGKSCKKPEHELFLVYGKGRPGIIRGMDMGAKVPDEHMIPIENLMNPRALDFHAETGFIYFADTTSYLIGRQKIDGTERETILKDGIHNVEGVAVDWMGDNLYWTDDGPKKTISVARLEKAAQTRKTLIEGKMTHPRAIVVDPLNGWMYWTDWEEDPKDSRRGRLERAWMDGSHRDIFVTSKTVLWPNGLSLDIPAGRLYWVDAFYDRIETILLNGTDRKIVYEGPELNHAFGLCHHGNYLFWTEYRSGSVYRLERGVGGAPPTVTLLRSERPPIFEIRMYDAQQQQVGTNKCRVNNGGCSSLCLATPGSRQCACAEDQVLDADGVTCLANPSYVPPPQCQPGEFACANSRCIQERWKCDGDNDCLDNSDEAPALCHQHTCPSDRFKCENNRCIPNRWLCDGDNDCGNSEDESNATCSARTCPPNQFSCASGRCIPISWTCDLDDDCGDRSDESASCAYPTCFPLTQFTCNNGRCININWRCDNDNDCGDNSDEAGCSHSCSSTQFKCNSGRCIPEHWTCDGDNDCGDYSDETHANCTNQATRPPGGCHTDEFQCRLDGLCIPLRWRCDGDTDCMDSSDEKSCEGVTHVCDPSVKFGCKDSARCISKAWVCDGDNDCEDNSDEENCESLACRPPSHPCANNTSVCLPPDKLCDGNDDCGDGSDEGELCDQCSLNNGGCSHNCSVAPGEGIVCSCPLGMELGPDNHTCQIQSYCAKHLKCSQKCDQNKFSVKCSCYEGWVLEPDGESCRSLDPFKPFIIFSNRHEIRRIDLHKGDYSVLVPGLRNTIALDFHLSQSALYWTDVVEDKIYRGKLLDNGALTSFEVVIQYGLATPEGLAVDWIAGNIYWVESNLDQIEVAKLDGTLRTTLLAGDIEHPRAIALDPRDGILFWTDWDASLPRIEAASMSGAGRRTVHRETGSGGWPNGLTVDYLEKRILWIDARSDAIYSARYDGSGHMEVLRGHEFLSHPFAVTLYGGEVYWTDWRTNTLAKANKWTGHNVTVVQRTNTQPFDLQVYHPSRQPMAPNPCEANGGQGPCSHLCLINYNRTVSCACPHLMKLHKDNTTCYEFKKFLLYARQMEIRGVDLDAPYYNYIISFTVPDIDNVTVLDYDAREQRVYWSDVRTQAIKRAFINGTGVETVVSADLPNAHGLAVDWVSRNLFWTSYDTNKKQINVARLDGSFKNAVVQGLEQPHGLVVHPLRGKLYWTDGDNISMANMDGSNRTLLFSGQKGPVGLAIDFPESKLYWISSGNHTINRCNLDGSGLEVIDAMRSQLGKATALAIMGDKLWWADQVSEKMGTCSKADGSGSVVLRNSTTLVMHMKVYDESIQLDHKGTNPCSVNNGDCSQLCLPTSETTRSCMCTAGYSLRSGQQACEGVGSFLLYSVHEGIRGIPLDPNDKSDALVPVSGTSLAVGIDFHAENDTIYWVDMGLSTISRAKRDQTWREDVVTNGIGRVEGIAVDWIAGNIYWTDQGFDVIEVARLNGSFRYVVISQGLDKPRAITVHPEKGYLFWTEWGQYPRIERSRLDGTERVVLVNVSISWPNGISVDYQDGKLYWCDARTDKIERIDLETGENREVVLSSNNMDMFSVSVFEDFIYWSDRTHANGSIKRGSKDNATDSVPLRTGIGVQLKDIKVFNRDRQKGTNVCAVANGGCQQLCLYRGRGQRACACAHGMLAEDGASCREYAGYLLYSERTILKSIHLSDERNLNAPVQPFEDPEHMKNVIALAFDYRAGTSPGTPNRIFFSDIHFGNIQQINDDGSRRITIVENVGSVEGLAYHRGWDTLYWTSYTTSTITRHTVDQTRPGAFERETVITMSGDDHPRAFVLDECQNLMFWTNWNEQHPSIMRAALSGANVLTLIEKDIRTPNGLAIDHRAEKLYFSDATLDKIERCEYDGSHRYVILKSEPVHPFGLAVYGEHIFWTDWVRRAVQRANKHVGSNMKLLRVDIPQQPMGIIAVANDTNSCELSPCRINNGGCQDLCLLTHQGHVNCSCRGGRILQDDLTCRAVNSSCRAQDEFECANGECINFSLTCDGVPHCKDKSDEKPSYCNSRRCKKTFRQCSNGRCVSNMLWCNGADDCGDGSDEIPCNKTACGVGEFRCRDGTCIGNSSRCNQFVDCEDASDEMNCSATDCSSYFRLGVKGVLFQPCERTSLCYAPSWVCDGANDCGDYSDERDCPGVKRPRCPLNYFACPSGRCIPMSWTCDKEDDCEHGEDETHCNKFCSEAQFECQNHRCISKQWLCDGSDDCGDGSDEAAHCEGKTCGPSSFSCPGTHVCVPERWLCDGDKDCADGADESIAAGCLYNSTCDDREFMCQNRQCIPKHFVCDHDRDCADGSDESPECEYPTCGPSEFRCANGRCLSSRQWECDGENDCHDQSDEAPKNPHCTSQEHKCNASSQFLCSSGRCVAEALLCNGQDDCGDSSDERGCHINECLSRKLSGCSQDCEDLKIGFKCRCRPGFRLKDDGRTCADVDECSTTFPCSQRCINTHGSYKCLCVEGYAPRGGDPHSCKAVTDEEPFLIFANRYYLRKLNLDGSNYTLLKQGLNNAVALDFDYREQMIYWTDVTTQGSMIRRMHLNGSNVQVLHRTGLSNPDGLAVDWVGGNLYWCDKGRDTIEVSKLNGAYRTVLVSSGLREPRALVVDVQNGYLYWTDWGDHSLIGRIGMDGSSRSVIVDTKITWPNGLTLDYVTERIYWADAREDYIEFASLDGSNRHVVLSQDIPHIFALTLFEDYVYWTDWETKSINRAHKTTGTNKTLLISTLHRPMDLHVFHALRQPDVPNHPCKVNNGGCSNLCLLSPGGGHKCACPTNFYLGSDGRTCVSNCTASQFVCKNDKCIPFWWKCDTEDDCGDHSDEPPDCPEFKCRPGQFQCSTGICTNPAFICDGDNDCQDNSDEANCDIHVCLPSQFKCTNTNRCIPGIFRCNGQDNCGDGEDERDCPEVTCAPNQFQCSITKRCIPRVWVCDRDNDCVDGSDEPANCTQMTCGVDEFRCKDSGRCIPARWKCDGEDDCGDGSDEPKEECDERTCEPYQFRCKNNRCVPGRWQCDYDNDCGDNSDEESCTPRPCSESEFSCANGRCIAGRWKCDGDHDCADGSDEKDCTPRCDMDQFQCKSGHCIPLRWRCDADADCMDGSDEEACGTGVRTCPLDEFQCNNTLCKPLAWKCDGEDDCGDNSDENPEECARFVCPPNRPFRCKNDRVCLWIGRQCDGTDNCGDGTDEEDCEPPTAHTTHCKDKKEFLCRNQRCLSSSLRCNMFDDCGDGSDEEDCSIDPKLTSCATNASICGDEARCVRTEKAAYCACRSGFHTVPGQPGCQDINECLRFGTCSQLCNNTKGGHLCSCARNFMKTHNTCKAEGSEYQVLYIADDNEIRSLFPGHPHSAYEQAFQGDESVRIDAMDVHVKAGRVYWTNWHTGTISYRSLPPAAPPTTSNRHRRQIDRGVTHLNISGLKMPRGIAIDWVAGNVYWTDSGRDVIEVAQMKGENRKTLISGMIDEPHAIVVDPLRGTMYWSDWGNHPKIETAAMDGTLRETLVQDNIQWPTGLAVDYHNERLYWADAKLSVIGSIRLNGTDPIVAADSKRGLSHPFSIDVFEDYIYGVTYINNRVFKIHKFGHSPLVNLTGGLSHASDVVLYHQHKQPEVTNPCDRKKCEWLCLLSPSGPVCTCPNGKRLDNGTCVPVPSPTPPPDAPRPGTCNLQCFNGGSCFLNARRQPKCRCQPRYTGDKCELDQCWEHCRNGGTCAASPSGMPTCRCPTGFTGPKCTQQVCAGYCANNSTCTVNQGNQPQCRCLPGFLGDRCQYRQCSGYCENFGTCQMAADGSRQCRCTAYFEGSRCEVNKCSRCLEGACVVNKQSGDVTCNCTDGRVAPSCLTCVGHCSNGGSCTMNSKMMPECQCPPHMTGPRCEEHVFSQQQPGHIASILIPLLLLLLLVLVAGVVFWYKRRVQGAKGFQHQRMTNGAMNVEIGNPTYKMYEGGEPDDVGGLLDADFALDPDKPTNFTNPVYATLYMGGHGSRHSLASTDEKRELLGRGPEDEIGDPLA

Binder	Kd [nM]	koff [s⁻¹]	kon [M⁻¹ s⁻¹]
FLAG-tagged N-TIMP-3 (N-terminal domain of TIMP-3) (domain or fragment, UniProt P35625 24-143, looked up) CTCSPSHPQDAFCNSDIVIRAKVVGKKLVKEGPFGTLVYTIKQMKMYRGFTKMPHVQYIHTEASESLCGLKLEVNKYQYLLTGRVYDGKMYTGLCNFVERWDQLTLSQRKGLNYRYHLGC	5.65	0.00321	567000
TIMP-1 (natural protein, also called T1) not shown	30.9	0.0109	353000
MMP-1ΔC/TIMP-3 complex (complex, catalytic domain of human MMP-1; pro-domain removed with APMA; as m8; as m3) chain 1: FVLTEGNPRWEQTHLTYRIENYTPDLPRADVDHAIEKAFQLWSNVTPLTFTKVSEGQADIMISFVRGDHRDNSPFDGPGGNLAHAFQPGPGIGGDAHFDEDERWTNNFREYNLHRVAAHELGHSLGLSHSTDIGALMYPSYTFSGDVQLAQDDIDGIQAIYGRSQNPVQP chain 2: CTCSPSHPQDAFCNSDIVIRAKVVGKKLVKEGPFGTLVYTIKQMKMYRGFTKMPHVQYIHTEASESLCGLKLEVNKYQYLLTGRVYDGKMYTGLCNFVERWDQLTLSQRKGLNYRYHLGCNCKIKSCYYLPCFVTSKNECLWTDMLSNFGYPGYQSKHYACIRQKGGYCSWYRGWAPPDKSIINATDP	6.42	0.00254	396000
ADAM-10/TIMP-3 complex (complex, 1:1 non-covalent complex; ADAM10 ectodomain (R&D Systems) taken by convention as mature extracellular region without prodomain (catalytic Zn2+), limits not given; TIMP-3 C-terminal/FLAG tag left …) chain 1: TTSAEKNTCQLYIQTDHLFFKYYGTREAVIAQISSHVKAIDTIYQTTDFSGIRNISFMVKRIRINTTADEKDPTNPFRFPNIGVEKFLELNSEQNHDDYCLAYVFTDRDFDDGVLGLAWVGAPSGSSGGICEKSKLYSDGKKKSLNTGIITVQNYGSHVPPKVSHITFAHEVGHNFGSPHDSGTECTPGESKNLGQKENGNYIMYARATSGDKLNNNKFSLCSIRNISQVLEKKRNNCFVESGQPICGNGMVEQGEECDCGYSDQCKDECCFDANQPEGRKCKLKPGKQCSPSQGPCCTAQCAFKSKSEKCRDDSDCAREGICNGFTALCPASDPKPNFTDCNRHTQVCINGQCAGSICEKYGLEECTCASSDGKDDKELCHVCCMKKMDPSTCASTGSVQWSRHFSGRTITLQPGSPCNDFRGYCDVFMRCRLVDADGPLARLKKAIFSPELYENIAE chain 2: CTCSPSHPQDAFCNSDIVIRAKVVGKKLVKEGPFGTLVYTIKQMKMYRGFTKMPHVQYIHTEASESLCGLKLEVNKYQYLLTGRVYDGKMYTGLCNFVERWDQLTLSQRKGLNYRYHLGCNCKIKSCYYLPCFVTSKNECLWTDMLSNFGYPGYQSKHYACIRQKGGYCSWYRGWAPPDKSIINATDP	8.67	0.00386	446000
ADAMTS5-2/TIMP-3 complex (complex, ADAMTS-5 lacking the C-terminal thrombospondin domain; as m17; as m3; also called [35S]TIMP-3/ADAMTS5-2) chain 1: SISRARQVELLLVADASMARLYGRGLQHYLLTLASIANRLYSHASIENHIRLAVVKVVVLGDKDKSLEVSKNAATTLKNFCKWQHQHNQLGDDHEEHYDAAILFTREDLCGHHSCDTLGMADVGTICSPERSCAVIEDDGLHAAFTVAHEIGHLLGLSHDDSKFCEETFGSTEDKRLMSSILTSIDASKPWSKCTSATITEFLDDGHGNCLLDLPRKQILGPEELPGQTYDATQQCNLTFGPEYSVCPGMDVCARLWCAVVRQGQMVCLTKKLPAVEGTPCGKGRICLQGKCVDKTKKKYYSTSSHGNWGSWGSWGQCSRSCGGGVQFAYRHCNNPAPRNNGRYCTGKRAIYRSCSLMPCPPNGKSFRHEQCEAKNGYQSDAKGVKTFVEWVPKYAGVLPADVCKLTCRAKGTGYYVVFSPKVTDGTECRLYSNSVCVRGKCVRTGCDGIIGSKLQYDKCGVCGGDNSSCTKIVGTFNKKSKGYTDVVRIPEGATHIKVRQFKAKDQTRFTAYLALKKKNGEYLINGKYMISTSETIIDINGTVMNYSGWSHRDDFLHGMGYSATKEILIVQILATDPTKPLDVRYSFFVPKKSTPKVNSVTSHGSNKVGSHT chain 2: CTCSPSHPQDAFCNSDIVIRAKVVGKKLVKEGPFGTLVYTIKQMKMYRGFTKMPHVQYIHTEASESLCGLKLEVNKYQYLLTGRVYDGKMYTGLCNFVERWDQLTLSQRKGLNYRYHLGCNCKIKSCYYLPCFVTSKNECLWTDMLSNFGYPGYQSKHYACIRQKGGYCSWYRGWAPPDKSIINATDP	4.5	0.00206	457000
ADAMTS4-2/TIMP-3 complex (complex, ADAMTS-4 lacking the C-terminal spacer domain; as m16; as m3; also called [35S]TIMP-3/ADAMTS4-2) chain 1: FASLSRFVETLVVADDKMAAFHGAGLKRYLLTVMAAAAKAFKHPSIRNPVSLVVTRLVILGSGEEGPQVGPSAAQTLRSFCAWQRGLNTPEDSDPDHFDTAILFTRQDLCGVSTCDTLGMADVGTVCDPARSCAIVEDDGLQSAFTAAHELGHVFNMLHDNSKPCISLNGPLSTSRHVMAPVMAHVDPEEPWSPCSARFITDFLDNGYGHCLLDKPEAPLHLPVTFPGKDYDADRQCQLTFGPDSRHCPQLPPPCAALWCSGHLNGHAMCQTKHSPWADGTPCGPAQACMGGRCLHMDQLQDFNIPQAGGWGPWGPWGDCSRTCGGGVQFSSRDCTRPVPRNGGKYCEGRRTRFRSCNTEDCPTGSALTFREEQCAAYNHRTDLFKSFPGPMDWVPRYTGVAPQDQCKLTCQAQALGYYYVLEPRVVDGTPCSPDSSSVCVQGRCIHAGCDRIIGSKKKFDKCMVCGGDGSGC chain 2: CTCSPSHPQDAFCNSDIVIRAKVVGKKLVKEGPFGTLVYTIKQMKMYRGFTKMPHVQYIHTEASESLCGLKLEVNKYQYLLTGRVYDGKMYTGLCNFVERWDQLTLSQRKGLNYRYHLGCNCKIKSCYYLPCFVTSKNECLWTDMLSNFGYPGYQSKHYACIRQKGGYCSWYRGWAPPDKSIINATDP	3.3	0.00217	659000
FLAG-tagged ADAMTS-5 lacking the C-terminal thrombospondin domain (ADAMTS5-2) (domain or fragment, UniProt Q9UNA0 262-874, looked up, ADAMTS-5 lacking the C-terminal thrombospondin domain) SISRARQVELLLVADASMARLYGRGLQHYLLTLASIANRLYSHASIENHIRLAVVKVVVLGDKDKSLEVSKNAATTLKNFCKWQHQHNQLGDDHEEHYDAAILFTREDLCGHHSCDTLGMADVGTICSPERSCAVIEDDGLHAAFTVAHEIGHLLGLSHDDSKFCEETFGSTEDKRLMSSILTSIDASKPWSKCTSATITEFLDDGHGNCLLDLPRKQILGPEELPGQTYDATQQCNLTFGPEYSVCPGMDVCARLWCAVVRQGQMVCLTKKLPAVEGTPCGKGRICLQGKCVDKTKKKYYSTSSHGNWGSWGSWGQCSRSCGGGVQFAYRHCNNPAPRNNGRYCTGKRAIYRSCSLMPCPPNGKSFRHEQCEAKNGYQSDAKGVKTFVEWVPKYAGVLPADVCKLTCRAKGTGYYVVFSPKVTDGTECRLYSNSVCVRGKCVRTGCDGIIGSKLQYDKCGVCGGDNSSCTKIVGTFNKKSKGYTDVVRIPEGATHIKVRQFKAKDQTRFTAYLALKKKNGEYLINGKYMISTSETIIDINGTVMNYSGWSHRDDFLHGMGYSATKEILIVQILATDPTKPLDVRYSFFVPKKSTPKVNSVTSHGSNKVGSHT	2.27	0.00678	2.99e+06
FLAG-tagged ADAMTS-4 lacking the C-terminal spacer domain (ADAMTS4-2) (domain or fragment, UniProt O75173 213-685, looked up, ADAMTS-4 lacking the C-terminal spacer domain) FASLSRFVETLVVADDKMAAFHGAGLKRYLLTVMAAAAKAFKHPSIRNPVSLVVTRLVILGSGEEGPQVGPSAAQTLRSFCAWQRGLNTPEDSDPDHFDTAILFTRQDLCGVSTCDTLGMADVGTVCDPARSCAIVEDDGLQSAFTAAHELGHVFNMLHDNSKPCISLNGPLSTSRHVMAPVMAHVDPEEPWSPCSARFITDFLDNGYGHCLLDKPEAPLHLPVTFPGKDYDADRQCQLTFGPDSRHCPQLPPPCAALWCSGHLNGHAMCQTKHSPWADGTPCGPAQACMGGRCLHMDQLQDFNIPQAGGWGPWGPWGDCSRTCGGGVQFSSRDCTRPVPRNGGKYCEGRRTRFRSCNTEDCPTGSALTFREEQCAAYNHRTDLFKSFPGPMDWVPRYTGVAPQDQCKLTCQAQALGYYYVLEPRVVDGTPCSPDSSSVCVQGRCIHAGCDRIIGSKKKFDKCMVCGGDGSGC	77.6	0.00381	49000
Receptor-associated protein (RAP), recombinant His-tagged (natural protein, UniProt P30533 35-357, looked up) YSREKNQPKPSPKRESGEEFRMEKLNQLWEKAQRLHLPPVRLAELHADLKIQERDELAWKKLKLDGLDEDGEKEARLIRNLNVILAKYGLDGKKDARQVTSNSLSGTQEDGLDDPRLEKLWHKAKTSGKFSGEELDKLWREFLHHKEKVHEYNVLLETLSRTEEIHENVISPSDLSDIKGSVLHSRHTELKEKLRSINQGLDRLRRVSHQGYSTEAEFEEPRVIDLWDLAQSANLTDKELEAFREELKHFEAKIEKHNHYQKQLEIAHEKLRHAESVGDGERVSRSREKHALLEGRTKELGYTVKKHLQDLSGRISRARHNEL	0.6	0.00419	6.88e+06
